The source of these data is publication doi:10.1101/2024.10.14.618187, “Molecular basis of interchain disulfide-bond formation in BMP-9 and BMP-10” (bioRxiv, 2024).

The chains are these.
T1: Pro-(X)-BMP-10 S385G, R353K, O95393
T1 chain: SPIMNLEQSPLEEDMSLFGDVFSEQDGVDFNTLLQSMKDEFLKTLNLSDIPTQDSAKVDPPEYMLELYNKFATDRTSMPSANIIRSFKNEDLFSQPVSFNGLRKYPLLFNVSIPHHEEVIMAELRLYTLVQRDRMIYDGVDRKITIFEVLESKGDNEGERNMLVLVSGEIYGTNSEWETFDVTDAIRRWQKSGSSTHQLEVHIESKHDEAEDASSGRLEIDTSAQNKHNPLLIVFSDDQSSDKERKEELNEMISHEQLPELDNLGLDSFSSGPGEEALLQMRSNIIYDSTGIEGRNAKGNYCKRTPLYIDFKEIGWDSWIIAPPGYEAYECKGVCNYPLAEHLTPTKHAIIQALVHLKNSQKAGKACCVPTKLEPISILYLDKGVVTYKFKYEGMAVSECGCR

T2: Pro-(X)-BMP-10 S385G, O95393
T2 chain: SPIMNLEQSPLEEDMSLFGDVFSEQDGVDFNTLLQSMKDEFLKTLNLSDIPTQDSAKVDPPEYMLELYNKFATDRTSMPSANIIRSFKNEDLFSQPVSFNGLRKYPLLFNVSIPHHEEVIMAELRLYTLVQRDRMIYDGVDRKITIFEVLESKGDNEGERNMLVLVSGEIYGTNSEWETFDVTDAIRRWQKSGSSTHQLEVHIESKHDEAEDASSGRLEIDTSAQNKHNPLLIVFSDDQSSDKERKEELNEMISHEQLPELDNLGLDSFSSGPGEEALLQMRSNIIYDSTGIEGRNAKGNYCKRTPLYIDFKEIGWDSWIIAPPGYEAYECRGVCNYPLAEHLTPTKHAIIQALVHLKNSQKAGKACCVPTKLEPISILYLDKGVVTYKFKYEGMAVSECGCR

B1: Pro-(X)-BMP-10, O95393 S385G; R353K (protein)
chain: SPIMNLEQSPLEEDMSLFGDVFSEQDGVDFNTLLQSMKDEFLKTLNLSDIPTQDSAKVDPPEYMLELYNKFATDRTSMPSANIIRSFKNEDLFSQPVSFNGLRKYPLLFNVSIPHHEEVIMAELRLYTLVQRDRMIYDGVDRKITIFEVLESKGDNEGERNMLVLVSGEIYGTNSEWETFDVTDAIRRWQKSGSSTHQLEVHIESKHDEAEDASSGRLEIDTSAQNKHNPLLIVFSDDQSSDKERKEELNEMISHEQLPELDNLGLDSFSSGPGEEALLQMRSNIIYDSTGIEGRNAKGNYCKRTPLYIDFKEIGWDSWIIAPPGYEAYECKGVCNYPLAEHLTPTKHAIIQALVHLKNSQKAGKACCVPTKLEPISILYLDKGVVTYKFKYEGMAVSECGCR
B2: Pro-(X)-BMP-10, O95393 S385G (protein)
chain: SPIMNLEQSPLEEDMSLFGDVFSEQDGVDFNTLLQSMKDEFLKTLNLSDIPTQDSAKVDPPEYMLELYNKFATDRTSMPSANIIRSFKNEDLFSQPVSFNGLRKYPLLFNVSIPHHEEVIMAELRLYTLVQRDRMIYDGVDRKITIFEVLESKGDNEGERNMLVLVSGEIYGTNSEWETFDVTDAIRRWQKSGSSTHQLEVHIESKHDEAEDASSGRLEIDTSAQNKHNPLLIVFSDDQSSDKERKEELNEMISHEQLPELDNLGLDSFSSGPGEEALLQMRSNIIYDSTGIEGRNAKGNYCKRTPLYIDFKEIGWDSWIIAPPGYEAYECRGVCNYPLAEHLTPTKHAIIQALVHLKNSQKAGKACCVPTKLEPISILYLDKGVVTYKFKYEGMAVSECGCR
B3: Pro-(fr)-BMP-10 (natural protein, human, UniProt O95393 22-424, looked up)
chain: SPIMNLEQSPLEEDMSLFGDVFSEQDGVDFNTLLQSMKDEFLKTLNLSDIPTQDSAKVDPPEYMLELYNKFATDRTSMPSANIIRSFKNEDLFSQPVSFNGLRKYPLLFNVSIPHHEEVIMAELRLYTLVQRDRMIYDGVDRKITIFEVLESKGDNEGERNMLVLVSGEIYGTNSEWETFDVTDAIRRWQKSGSSTHQLEVHIESKHDEAEDASSGRLEIDTSAQNKHNPLLIVFSDDQSSDKERKEELNEMISHEQLPELDNLGLDSFSSGPGEEALLQMRSNIIYDSTARIRRNAKGNYCKRTPLYIDFKEIGWDSWIIAPPGYEAYECRGVCNYPLAEHLTPTKHAIIQALVHLKNSQKASKACCVPTKLEPISILYLDKGVVTYKFKYEGMAVSECGCR
notes: human proBMP10 residues 22-424 with the natural furin site; secreted partially processed; Partly cut by furin into prodomain and growth factor; also called Pro-BMP-10 with unmodified furin processing site; wild-type BMP-10; source: expi293 (suspension HEK293), secreted; purified by IMAC; not shown: 8xHis, N-terminal, kept
B4: Pro-(fr)-TGF-β2 (natural protein, human, UniProt P61812-1 19-414, looked up)
chain: LSLSTSSTLDMDQFMRKRIEAIRGQILSKLKLTSPPEDYPEPEEVPPEVISIYNSTRDLLQEKASRRAAACERERSDEEYYAKEVYKIDMPPFFPSENAIPPTFYRPYFRIVRFDVSAMEKNASNLVKAEFRVFRLQNPKARVAEQRIELYQILKSKDLTSPTQRYIDSKVVKTRAEGEWLSFDVTDAVHEWLHHKDRNLGFKISLHCPCCTFVPSNNYIIPNKSEELEARFAGIDGTSTYTSGDQKTIKSTRKKNSGKTPHLLLMLLPSYRLESQQTNRRKKRALDAAYCFRNVQDNCCLRPLYIDFKRDLGWKWIHEPKGYNANFCAGACPYLWSSDTQHSRVLSLYNTINPEASASPCCVSQDLEPLTILYYIGKTPKIEQLSNMIVKSCKCS
notes: human proTGFβ2 residues 19-414; Behind the mouse Ig signal peptide and the His tag, no processing site after the tag; Furin processing incomplete; also called Pro-TGF-β2; source: expi293 (suspension HEK293), secreted; purified from conditioned medium by the histidine tag; not shown: 8xHis, N-terminal, kept
B5: Pro-(fr)-BMP-9 (natural protein, human, UniProt Q9UK05 23-429, looked up)
chain: KPLQSWGRGSAGGNAHSPLGVPGGGLPEHTFNLKMFLENVKVDFLRSLNLSGVPSQDKTRVEPPQYMIDLYNRYTSDKSTTPASNIVRSFSMEDAISITATEDFPFQKHILLFNISIPRHEQITRAELRLYVSCQNHVDPSHDLKGSVVIYDVLDGTDAWDSATETKTFLVSQDIQDEGWETLEVSSAVKRWVRSDSTKSKNKLEVTVESHRKGCDTLDISVPPGSRNLPFFVVFSNDHSSGTKETRLELREMISHEQESVLKKLSKDGSTEAGESSHEEDTDGHVAAGSTLARRKRSSGAGSHCQKTSLRVNFEDIGWDSWIIAPKEYEAYECKGGCFFPLADDVTPTKHAIVQTLVHLKFPTKVGKACCVPTKLSPISVLYKDDMGVPTLKYHYEGMSVAECGCR
notes: human proBMP9 residues 23-429 with the natural furin site; secreted partially processed; Partly cut by furin into prodomain and growth factor (12 and 24 kDa forms on the gel); also called Pro-BMP-9 with unmodified furin processing site; wild-type BMP-9; source: expi293 (suspension HEK293), secreted; purified by IMAC; not shown: 8xHis, N-terminal, kept
B6: Pro-(X)-BMP-9 G389S, K357R (natural protein, human, UniProt Q9UK05 23-429, looked up)
chain: KPLQSWGRGSAGGNAHSPLGVPGGGLPEHTFNLKMFLENVKVDFLRSLNLSGVPSQDKTRVEPPQYMIDLYNRYTSDKSTTPASNIVRSFSMEDAISITATEDFPFQKHILLFNISIPRHEQITRAELRLYVSCQNHVDPSHDLKGSVVIYDVLDGTDAWDSATETKTFLVSQDIQDEGWETLEVSSAVKRWVRSDSTKSKNKLEVTVESHRKGCDTLDISVPPGSRNLPFFVVFSNDHSSGTKETRLELREMISHEQESVLKKLSKDGSTEAGESSHEEDTDGHVAAGSTLAIEGRSSGAGSHCQKTSLRVNFEDIGWDSWIIAPKEYEAYECRGGCFFPLADDVTPTKHAIVQTLVHLKFPTKVSKACCVPTKLSPISVLYKDDMGVPTLKYHYEGMSVAECGCR
notes: also called G389S, K357R BMP-9; BMP-9 double mutant; source: expi293 (suspension HEK293), secreted; purified by IMAC; not shown: 8xHis, N-terminal, kept

The target of one data set is T1, Pro-(X)-BMP-10 S385G, R353K, O95393. In words: SDS-PAGE densitometry after IMAC purification. The note with it: chain shown with the change.
On to B1, for which the other: dimer over monomer ratio turned out to be 0.41.

Another data set concerns the target T2, Pro-(X)-BMP-10 S385G, O95393. In words: SDS-PAGE densitometry after IMAC purification. Particulars: chain shown with the change.
As for B2, the other: dimer over monomer ratio was 0.42.

A further data set concerns the molecule itself. In words: non-reducing SDS-PAGE after IMAC, with densitometry; His-tagged pro-proteins purified from expi293 conditioned medium by IMAC, run non-reduced and reduced; shows the disulfide-linked dimer beside the monomer; bands quantified with ImageJ.
Details: not given
B3: the binding result was “binds”.

With B4, the binding result is “binds”.

On to B5, for which the binding result was “binds”.

With B6, the binding result was “binds”.
